# Data reported in the supplement of paper PMC10567573.
# B1: SMG5 (parent)
# chain: QEKLQVLMAEGLLPAVKVFLDWLR
# Variants of: B1
# Assay: protein stability index of a GFP-peptide fusion (GPS, HEK-293T) (PSI 1-6); higher = more stable
# Conditions: c terminus: a fixed tail appended
# 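Also: lentivirally expressed fusions sorted by FACS into six bins by GFP to DsRed ratio, PSI derived from sequencing read proportions per bin multiplied by bin number.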
row,Variant,protein stability index
1,QEKLQVLMAEGLLPAVKVFYDWLR,1.54
2,QEKLQVLMAEGLLPAVKVFMDWLR,2.64
3,QEKLQVLMAEGLLPAVKVFTDWLR,3.12
4,QEKLQVLMAEGLLPAVKVFADWLR,3.26
5,QEKLQVLMAEGLLPAVKVFGDWLR,1.77
6,QEKLQVLMAEGLLPAVKVFEDWLR,1.7
7,QEKLQVLMAEGLLPAVKVFWDWLR,2.29
8,QEKLQVLMAEGLLPAVKVFFDWLR,2.52
9,QEKLQVLMAEGLLPAVKVFVDWLR,1.4
10,QEKLQVLMAEGLLPAVKVFQDWLR,2.02
11,QEKLQVLMAEGLLPAVKVFCDWLR,3.11
12,QEKLQVLMAEGLLPAVKVFIDWLR,2.02
13,QEKLQVLMAEGLLPAVKVFDDWLR,1.59
14,QEKLQVLMAEGLLPAVKVFSDWLR,2.73
15,QEKLQVLMAEGLLPAVKVFKDWLR,1.41
16,QEKLQVLMAEGLLPAVKVFPDWLR,1.76
17,QEKLQVLMAEGLLPAVKVFRDWLR,1.58
18,QEKLQVLMAEGLLPAVKVFLDTLR,1.91
19,QEKLQVLMAEGLLPAVKVFLDKLR,2.53
20,QEKLQVLMAEGLLPAVKVFLDHLR,2.73
21,QEKLQVLMAEGLLPAVKVFLDVLR,1.62
22,QEKLQVLMAEGLLPAVKVFLDYLR,2.13
23,QEKLQVLMAEGLLPAVKVFLDSLR,2.17
24,QEKLQVLMAEGLLPAVKVFLDILR,1.96

row,Variant,protein stability index
1,QEKLQVLMAEGLLPAVKVFLDGLR,2.63
2,QEKLQVLMAEGLLPAVKVFLDNLR,2.28
3,QEKLQVLMAEGLLPAVKVFLDELR,2.05
4,QEKLQVLMAEGLLPAVKVFLDQLR,2.38
5,QEKLQVLMAEGLLPAVKVFLDALR,2.8
6,QEKLQVLMAEGLLPAVKVFLDRLR,1.95
7,QEKLQVLMAEGLLPAVKVFLDCLR,1.99
8,QEKLQVLMAEGLLPAVKVFLDFLR,2.09
9,QEKLQVLMAEGLLPAVKVFLDLLR,2.47
10,QEKLQVLMAEGLLPAVKVFLDMLR,1.57
11,QEKLQVLMAEGLLPAVKVFLDPLR,2.26
12,QEKLQVLMAEGLLYAVKVFLDWLR,2.43
13,QEKLQVLMAEGLLLAVKVFLDWLR,1.67
14,QEKLQVLMAEGLLGAVKVFLDWLR,1.17
15,QEKLQVLMAEGLLWAVKVFLDWLR,2.46
16,QEKLQVLMAEGLLFAVKVFLDWLR,1.97
17,QEKLQVLMAEGLLNAVKVFLDWLR,2.38
18,QEKLQVLMAEGLLCAVKVFLDWLR,1.7
19,QEKLQVLMAEGLLKAVKVFLDWLR,3.27
20,QEKLQVLMAEGLLTAVKVFLDWLR,2.54
21,QEKLQVLMAEGLLIAVKVFLDWLR,1.19
22,QEKLQVLMAEGLLRAVKVFLDWLR,1.69
23,QEKLQVLMAEGLLEAVKVFLDWLR,1.96
24,QEKLQVLMAEGLLSAVKVFLDWLR,2.32

row,Variant,protein stability index
1,QEKLQVLMAEGLLDAVKVFLDWLR,2.29
2,QEKLQVLMAEGLLVAVKVFLDWLR,1.42
3,QEKLQVLMAEGLLMAVKVFLDWLR,1.75
4,QEKLQVLMAEGLLQAVKVFLDWLR,1.83
5,QEKLQVLMAEGLLAAVKVFLDWLR,2.25
6,QEKLQVLMAEGLLPAVKVRLDWLR,2.12
7,QEKLQVLMAEGLLPAVKVLLDWLR,1.9
8,QEKLQVLMAEGLLPAVKVGLDWLR,3.15
9,QEKLQVLMAEGLLPAVKVILDWLR,2.39
10,QEKLQVLMAEGLLPAVKVDLDWLR,2.14
11,QEKLQVLMAEGLLPAVKVSLDWLR,2.73
12,QEKLQVLMAEGLLPAVKVMLDWLR,2.48
13,QEKLQVLMAEGLLPAVKVKLDWLR,2.35
14,QEKLQVLMAEGLLPAVKVHLDWLR,1.31
15,QEKLQVLMAEGLLPAVKVNLDWLR,1.53
16,QEKLQVLMAEGLLPAVKVALDWLR,2.97
17,QEKLQVLMAEGLLPAVKVELDWLR,1.53
18,QEKLQVLMAEGLLPAVKVQLDWLR,2.13
19,QEKLQVLMAEGLLPAVKVYLDWLR,1.6
20,QEKLQVLMAEGLLPAVKVPLDWLR,2.17
21,QEKLQVLMAEGLLPAVKVCLDWLR,2.4
22,QEKLQVLMAEGLLPAVKVWLDWLR,1.89
23,QEKLQVLMAEGLWPAVKVFLDWLR,2.62
24,QEKLQVLMAEGLQPAVKVFLDWLR,1.71

row,Variant,protein stability index
1,QEKLQVLMAEGLSPAVKVFLDWLR,2.78
2,QEKLQVLMAEGLHPAVKVFLDWLR,2.6
3,QEKLQVLMAEGLPPAVKVFLDWLR,2.6
4,QEKLQVLMAEGLRPAVKVFLDWLR,1.37
5,QEKLQVLMAEGLMPAVKVFLDWLR,2.27
6,QEKLQVLMAEGLVPAVKVFLDWLR,2.04
7,QEKLQVLMAEGLEPAVKVFLDWLR,1.09
8,QEKLQVLMAEGLTPAVKVFLDWLR,1.29
9,QEKLQVLMAEGLGPAVKVFLDWLR,2.17
10,QEKLQVLMAEGLKPAVKVFLDWLR,1.62
11,QEKLQVLMAEGLNPAVKVFLDWLR,1.99
12,QEKLQVLMAEGLFPAVKVFLDWLR,1.38
13,QEKLQVLMAEGLYPAVKVFLDWLR,3.17
14,QEKLQVLMAEGLLPAVKVFLTWLR,2.98
15,QEKLQVLMAEGLLPAVKVFLGWLR,2.04
16,QEKLQVLMAEGLLPAVKVFLAWLR,2.05
17,QEKLQVLMAEGLLPAVKVFLCWLR,1.68
18,QEKLQVLMAEGLLPAVKVFLHWLR,3.17
19,QEKLQVLMAEGLLPAVKVFLFWLR,3.72
20,QEKLQVLMAEGLLPAVKVFLLWLR,2.2
21,QEKLQVLMAEGLLPAVKVFLIWLR,2.5
22,QEKLQVLMAEGLLPAVKVFLPWLR,1.65
23,QEKLQVLMAEGLLPAVKVFLNWLR,2.6
24,QEKLQVLMAEGLLPAVKVFLEWLR,1.33

row,Variant,protein stability index
1,QEKLQVLMAEGLLPAVKVFLKWLR,2.54
2,QEKLQVLMAEGLLPAVKVFLMWLR,2.04
3,QEKLQVLMAEGLLPAVKVFLYWLR,3.03
4,QEKLQVLMAEGLLPATKVFLDWLR,2.46
5,QEKLQVLMAEGLLPACKVFLDWLR,1.98
6,QEKLQVLMAEGLLPAFKVFLDWLR,2.56
7,QEKLQVLMAEGLLPAMKVFLDWLR,1.85
8,QEKLQVLMAEGLLPAKKVFLDWLR,2.04
9,QEKLQVLMAEGLLPAPKVFLDWLR,3.13
10,QEKLQVLMAEGLLPAWKVFLDWLR,1.96
11,QEKLQVLMAEGLLPANKVFLDWLR,1.75
12,QEKLQVLMAEGLLPAYKVFLDWLR,2.29
13,QEKLQVLMAEGLLPAAKVFLDWLR,1.67
14,QEKLQVLMAEGLLPARKVFLDWLR,2.25
15,QEKLQVLMAEGLLPALKVFLDWLR,1.39
16,QEKLQVLMAEGLLPAIKVFLDWLR,2.16
17,QEKLQVLMAEGLLPAGKVFLDWLR,1.15
18,QEKLQVLMAEGLLPASKVFLDWLR,2.31
19,QEKLQVLMAEGLLPAQKVFLDWLR,1.86
20,QEKLQVLMAEGLLPADKVFLDWLR,1.95
21,QEKLQVLMAEGLLPAHKVFLDWLR,1.93
22,QEKLQVLMAEGLLPAEKVFLDWLR,2.15
23,QEKLQVLMAEGLLPAVMVFLDWLR,1.79
24,QEKLQVLMAEGLLPAVFVFLDWLR,1.91

row,Variant,protein stability index
1,QEKLQVLMAEGLLPAVTVFLDWLR,2.05
2,QEKLQVLMAEGLLPAVHVFLDWLR,1.71
3,QEKLQVLMAEGLLPAVCVFLDWLR,1.86
4,QEKLQVLMAEGLLPAVIVFLDWLR,2.31
5,QEKLQVLMAEGLLPAVLVFLDWLR,2.03
6,QEKLQVLMAEGLLPAVSVFLDWLR,1.82
7,QEKLQVLMAEGLLPAVVVFLDWLR,1.52
8,QEKLQVLMAEGLLPAVGVFLDWLR,1.91
9,QEKLQVLMAEGLLPAVDVFLDWLR,1.27
10,QEKLQVLMAEGLLPAVPVFLDWLR,1.2
11,QEKLQVLMAEGLLPAVQVFLDWLR,1.44
12,QEKLQVLMAEGLLPAVAVFLDWLR,2.99
13,QEKLQVLMAEGLLPAVYVFLDWLR,2.78
14,QEKLQVLMAEGLLPAVRVFLDWLR,2.07
15,QEKLQVLMAEGLLPAVWVFLDWLR,2.18
16,QEKLQVLMAEGLLPAVEVFLDWLR,1.72
17,QEKLQVLMAEGLLPAVNVFLDWLR,2.26
18,QEKLQVLMAEGLLPHVKVFLDWLR,1.99
19,QEKLQVLMAEGLLPFVKVFLDWLR,2.42
20,QEKLQVLMAEGLLPNVKVFLDWLR,2.4
21,QEKLQVLMAEGLLPRVKVFLDWLR,4.13
22,QEKLQVLMAEGLLPEVKVFLDWLR,2
23,QEKLQVLMAEGLLPMVKVFLDWLR,2.05
24,QEKLQVLMAEGLLPYVKVFLDWLR,2.5

row,Variant,protein stability index
1,QEKLQVLMAEGLLPTVKVFLDWLR,3.37
2,QEKLQVLMAEGLLPSVKVFLDWLR,2.39
3,QEKLQVLMAEGLLPDVKVFLDWLR,1.66
4,QEKLQVLMAEGLLPGVKVFLDWLR,2.45
5,QEKLQVLMAEGLLPIVKVFLDWLR,1.76
6,QEKLQVLMAEGLLPCVKVFLDWLR,2.72
7,QEKLQVLMAEGLLPQVKVFLDWLR,2.21
8,QEKLQVLMAEGLLPWVKVFLDWLR,1.88
9,QEKLQVLMAEGLLPLVKVFLDWLR,1.63
10,QEKLQVLMAEGLLPVVKVFLDWLR,1.88
11,QEKLQVLMAEGLLPPVKVFLDWLR,1.86
12,QEKLQVLMAEGLLPAVKSFLDWLR,3.52
13,QEKLQVLMAEGLLPAVKFFLDWLR,1.94
14,QEKLQVLMAEGLLPAVKIFLDWLR,2.82
15,QEKLQVLMAEGLLPAVKTFLDWLR,3.25
16,QEKLQVLMAEGLLPAVKLFLDWLR,1.99
17,QEKLQVLMAEGLLPAVKDFLDWLR,2.44
18,QEKLQVLMAEGLLPAVKMFLDWLR,2.59
19,QEKLQVLMAEGLLPAVKKFLDWLR,2.05
20,QEKLQVLMAEGLLPAVKQFLDWLR,3.07
21,QEKLQVLMAEGLLPAVKEFLDWLR,2.37
22,QEKLQVLMAEGLLPAVKRFLDWLR,3.86
23,QEKLQVLMAEGLLPAVKYFLDWLR,3.16
24,QEKLQVLMAEGLLPAVKHFLDWLR,3.52

row,Variant,protein stability index
1,QEKLQVLMAEGLLPAVKAFLDWLR,2.19
2,QEKLQVLMAEGLLPAVKGFLDWLR,3.13
3,QEKLQVLMAEGLLPAVKCFLDWLR,2.37
4,QEKLQVLMAEGLLPAVKWFLDWLR,1.64
5,QEKLQVLMAEGLLPAVKPFLDWLR,1.91
6,QEKLQVLMAEGLLPAVKVFLDWCR,1.08
7,QEKLQVLMAEGLLPAVKVFLDWHR,1.27
8,QEKLQVLMAEGLLPAVKVFLDWNR,2.58
9,QEKLQVLMAEGLLPAVKVFLDWSR,2.57
10,QEKLQVLMAEGLLPAVKVFLDWKR,1.83
11,QEKLQVLMAEGLLPAVKVFLDWMR,4.59
12,QEKLQVLMAEGLLPAVKVFLDWQR,1.91
13,QEKLQVLMAEGLLPAVKVFLDWER,1.26
14,QEKLQVLMAEGLLPAVKVFLDWGR,2.66
15,QEKLQVLMAEGLLPAVKVFLDWPR,2.21
16,QEKLQVLMAEGLLPAVKVFLDWDR,2.75
17,QEKLQVLMAEGLLPAVKVFLDWFR,2.67
18,QEKLQVLMAEGLLPAVKVFLDWIR,2.39
19,QEKLQVLMAEGLLPAVKVFLDWAR,1.72
20,QEKLQVLMAEGLLPAVKVFLDWRR,2.38
